The results in this text go back to PMC9402891, “Case report: Biochemical and clinical phenotypes caused by cysteine substitutions in the epidermal growth factor-like domains of fibrillin-1” (Frontiers in Genetics, 2022).

This test has as its target T1, latent transforming growth factor beta-binding protein 1 fragment LTBP1^1141-1395 (LTBP1^cbEGF14cbEGF15) (human, UniProt Q14766-2 1141-1395).
T1 construct: LTBP1, residues 1141-1395: cbEGF14, TB3, EGF3 and cbEGF15 domains (the C-terminal region); the domains named are the C-terminal ones, which fits the short isoform; also called LTBP1 polypeptides
T1 sequence (looked up): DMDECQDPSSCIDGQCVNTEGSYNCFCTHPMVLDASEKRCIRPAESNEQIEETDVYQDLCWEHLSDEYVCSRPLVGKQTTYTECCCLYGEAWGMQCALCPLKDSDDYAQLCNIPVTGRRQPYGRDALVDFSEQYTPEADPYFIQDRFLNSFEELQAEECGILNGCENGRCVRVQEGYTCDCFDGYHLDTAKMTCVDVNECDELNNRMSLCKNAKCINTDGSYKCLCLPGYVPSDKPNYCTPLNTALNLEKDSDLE
The test is described as follows: SPR; immobilised partner not stated; running buffer 10 mM HEPES, 150 mM NaCl, 2 mM CaCl2, pH 7.4, 0.005% (v/v) Tween-20; regeneration 50 mM HCl; Biacore T200 (ProteOn system also named). The conditions noted are these: both partners purified.

B1: human fibrillin-1 fragment FBN1^113-287+C160Y (FBN1^E2cbEGF1+C160Y) (domain or fragment)
chain: not shown
notes: fibrillin-1, human, residues 113-287 (EGF2, EGF3, Hyb1 and cbEGF1 domains) with the patient mutation C160Y (c.479G>A) in EGF3; also called mutant recombinant fibrillin-1 polypeptides
For the molecule B1, binding was put at a Kd of 1230 nM.

B2: human fibrillin-1 fragment FBN1^113-287 (FBN1^E2cbEGF1), wild type (domain or fragment)
chain: not shown
notes: fibrillin-1, human, residues 113-287: EGF2, EGF3, Hyb1 and cbEGF1 domains; one of them ends in L288, which may be a residue from the vector; also called wild-type fibrillin-1 polypeptides
With B2, the Kd (as a rule, a measure of binding affinity in units of concentration) is 1530 nM.
